Laboratory results published in PMC6461108 (2019).

Molecular target: S-peptide S-peptide (Bos taurus, UniProt P61823)
Test: ITC

Chain of S-peptide S-peptide (P61823 27-46): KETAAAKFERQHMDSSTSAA

Kd: 130 nM
B1: RNase S-protein S-protein (protein)
chain: SSSNYCNQMMKSRNLTKDRCKPVNTFVHESLADVQAVCSQKNVACKNGQTNCYQSYSTMSITDCRETGSSKYPNCAYKTTQANKHIIVACEGNPYVPVHFDASV
